Laboratory results published in IntAct's records for PubMed 31515488.

B1: Gem-associated protein 6 (Homo sapiens), Q8WXD5 (parent)
chain: MSEWMKKGPLEWQDYIYKEVRVTASEKNEYKGWVLTTDPVSANIVLVNFLEDGSMSVTGIMGHAVQTVETMNEGDHRVREKLMHLFTSGDCKAYSPEDLEERKNSLKKWLEKNHIPITEQGDAPRTLCVAGVLTIDPPYGPENCSSSNEIILSRVQDLIEGHLTASQ
B2: KH domain-containing, RNA-binding, signal transduction-associated protein 2 (Homo sapiens), Q5VWX1 (parent)
chain: MEEEKYLPELMAEKDSLDPSFVHASRLLAEEIEKFQGSDGKKEDEEKKYLDVISNKNIKLSERVLIPVKQYPKFNFVGKLLGPRGNSLKRLQEETGAKMSILGKGSMRDKAKEEELRKSGEAKYAHLSDELHVLIEVFAPPGEAYSRMSHALEEIKKFLVPDYNDEIRQEQLRELSYLNGSEDSGRGRGIRGRGIRIAPTAPSRGRGGAIPPPPPPGRGVLTPRGSTVTRGALPVPPVARGVPTPRARGAPTVPGYRAPPPPAHEAYEEYGYDDGYGGEYDDQTYETYDNSYATQTQSVPEYYDYGHGVSEDAYDSYAPEEWATTRSSLKAPPQRSARGGYREHPYGRY
B3: Pachytene checkpoint protein 2 homolog (Homo sapiens), Q15645 (parent)
chain: MDEAVGDLKQALPCVAESPTVHVEVHQRGSSTAKKEDINLSVRKLLNRHNIVFGDYTWTEFDEPFLTRNVQSVSIIDTELKVKDSQPIDLSACTVALHIFQLNEDGPSSENLEEETENIIAANHWVLPAAEFHGLWDSLVYDVEVKSHLLDYVMTTLLFSDKNVNSNLITWNRVVLLHGPPGTGKTSLCKALAQKLTIRLSSRYRYGQLIEINSHSLFSKWFSESGKLVTKMFQKIQDLIDDKDALVFVLIDEVESLTAARNACRAGTEPSDAIRVVNAVLTQIDQIKRHSNVVILTTSNITEKIDVAFVDRADIKQYIGPPSAAAIFKIYLSCLEELMKCQIIYPRQQLLTLRELEMIGFIENNVSKLSLLLNDISRKSEGLSGRVLRKLPFLAHALYVQAPTVTIEGFLQALSLAVDKQFEERKKLAAYI
B4: Bleomycin hydrolase (Homo sapiens), Q13867 (parent)
chain: MSSSGLNSEKVAALIQKLNSDPQFVLAQNVGTTHDLLDICLKRATVQRAQHVFQHAVPQEGKPITNQKSSGRCWIFSCLNVMRLPFMKKLNIEEFEFSQSYLFFWDKVERCYFFLSAFVDTAQRKEPEDGRLVQFLLMNPANDGGQWDMLVNIVEKYGVIPKKCFPESYTTEATRRMNDILNHKMREFCIRLRNLVHSGATKGEISATQDVMMEEIFRVVCICLGNPPETFTWEYRDKDKNYQKIGPITPLEFYREHVKPLFNMEDKICLVNDPRPQHKYNKLYTVEYLSNMVGGRKTLYNNQPIDFLKKMVAASIKDGEAVWFGCDVGKHFNSKLGLSDMNLYDHELVFGVSLKNMNKAERLTFGESLMTHAMTFTAVSEKDDQDGAFTKWRVENSWGEDHGHKGYLCMTDEWFSEYVYEVVVDRKHVPEEVLAVLEQEPIILPAWDPMGALAE
B5: cGMP-dependent protein kinase 1 (Homo sapiens), Q13976 (parent)
chain: MSELEEDFAKILMLKEERIKELEKRLSEKEEEIQELKRKLHKCQSVLPVPSTHIGPRTTRAQGISAEPQTYRSFHDLRQAFRKFTKSERSKDLIKEAILDNDFMKNLELSQIQEIVDCMYPVEYGKDSCIIKEGDVGSLVYVMEDGKVEVTKEGVKLCTMGPGKVFGELAILYNCTRTATVKTLVNVKLWAIDRQCFQTIMMRTGLIKHTEYMEFLKSVPTFQSLPEEILSKLADVLEETHYENGEYIIRQGARGDTFFIISKGTVNVTREDSPSEDPVFLRTLGKGDWFGEKALQGEDVRTANVIAAEAVTCLVIDRDSFKHLIGGLDDVSNKAYEDAEAKAKYEAEAAFFANLKLSDFNIIDTLGVGGFGRVELVQLKSEESKTFAMKILKKRHIVDTRQQEHIRSEKQIMQGAHSDFIVRLYRTFKDSKYLYMLMEACLGGELWTILRDRGSFEDSTTRFYTACVVEAFAYLHSKGIIYRDLKPENLILDHRGYAKLVDFGFAKKIGFGKKTWTFCGTPEYVAPEIILNKGHDISADYWSLGILMYELLTGSPPFSGPDPMKTYNIILRGIDMIEFPKKIAKNAANLIKKLCRDNPSERLGNLKNGVKDIQKHKWFEGFNWEGLRKGTLTPPIIPSVASPTDTSNFDSFPEDNDEPPPDDNSGWDIDF
partner: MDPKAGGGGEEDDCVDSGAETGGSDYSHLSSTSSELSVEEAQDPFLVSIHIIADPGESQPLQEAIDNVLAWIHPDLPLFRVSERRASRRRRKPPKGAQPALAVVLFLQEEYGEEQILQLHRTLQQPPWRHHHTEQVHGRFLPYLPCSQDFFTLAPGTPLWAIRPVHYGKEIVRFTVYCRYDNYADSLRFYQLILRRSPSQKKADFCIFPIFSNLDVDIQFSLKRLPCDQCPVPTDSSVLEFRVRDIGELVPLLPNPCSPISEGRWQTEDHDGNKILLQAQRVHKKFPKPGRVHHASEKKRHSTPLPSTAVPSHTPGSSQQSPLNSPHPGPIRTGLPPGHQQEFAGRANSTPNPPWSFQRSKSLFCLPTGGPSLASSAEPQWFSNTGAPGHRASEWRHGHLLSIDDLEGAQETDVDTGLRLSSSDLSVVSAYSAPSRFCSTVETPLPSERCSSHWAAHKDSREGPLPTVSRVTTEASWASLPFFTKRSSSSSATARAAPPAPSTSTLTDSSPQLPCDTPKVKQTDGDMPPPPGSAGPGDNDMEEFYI
B6: Microtubule-associated tumor suppressor candidate 2 (Homo sapiens), Q5JR59-3 (parent)
chain: MGHCCCKPYNCLQCLDKTNESALVKEKELSIELANIRDEVAFHTAKCEKLQKEKEELERRFEDEVKRLGWQQQAELQELEERLQLQFEAEMARLQEEHGDQLLSIRCQHQEQVEDLTASHDAALLEMENNHTVAITILQDDHDHKVQELMSTHELEKKELEENFEKLRLSLQDQVDTLTFQSQSLRDRARRFEEALRKNTEEQLEIALAPYQHLEEDMKSLKQVLEMKNQQIHEQEKKILELEKLAEKNIILEEKIQVLQQQNEDLKARIDQNTVVTRQLSEENANLQEYVEKETQEKKRLSRTNEELLWKLQTGDPTSPIKLSPTSPVYRGSSSGPSSPARVSTTPR
partner: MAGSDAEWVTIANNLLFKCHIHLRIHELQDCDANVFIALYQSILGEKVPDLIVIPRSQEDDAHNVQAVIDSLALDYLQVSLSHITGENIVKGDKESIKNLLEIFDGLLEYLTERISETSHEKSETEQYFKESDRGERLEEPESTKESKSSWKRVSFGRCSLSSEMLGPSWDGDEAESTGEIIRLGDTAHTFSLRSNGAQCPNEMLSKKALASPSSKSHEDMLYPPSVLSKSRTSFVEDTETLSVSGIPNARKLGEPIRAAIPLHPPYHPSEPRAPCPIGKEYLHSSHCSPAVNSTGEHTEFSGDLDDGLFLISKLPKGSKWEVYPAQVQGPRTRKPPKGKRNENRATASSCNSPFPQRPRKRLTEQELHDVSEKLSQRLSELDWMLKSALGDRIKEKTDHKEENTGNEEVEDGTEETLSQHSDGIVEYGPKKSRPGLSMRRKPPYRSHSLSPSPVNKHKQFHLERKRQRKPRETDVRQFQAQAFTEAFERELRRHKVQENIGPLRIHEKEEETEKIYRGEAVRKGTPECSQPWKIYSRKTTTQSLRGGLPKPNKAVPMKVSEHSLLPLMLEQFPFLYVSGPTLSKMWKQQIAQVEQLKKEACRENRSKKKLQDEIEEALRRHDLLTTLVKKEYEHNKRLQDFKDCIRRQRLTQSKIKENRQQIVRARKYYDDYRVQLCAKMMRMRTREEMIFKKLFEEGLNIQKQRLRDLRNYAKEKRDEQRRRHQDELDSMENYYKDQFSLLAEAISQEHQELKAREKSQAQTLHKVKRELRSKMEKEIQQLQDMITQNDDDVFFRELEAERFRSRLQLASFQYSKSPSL
B7: Peroxisomal biogenesis factor 19 (Homo sapiens), P40855 (parent)
chain: MAAAEEGCSVGAEADRELEELLESALDDFDKAKPSPAPPSTTTAPDASGPQKRSPGDTAKDALFASQEKFFQELFDSELASQATAEFEKAMKELAEEEPHLVEQFQKLSEAAGRVGSDMTSQQEFTSCLKETLSGLAKNATDLQNSSMSEEELTKAMEGLGMDEGDGEGNILPIMQSIMQNLLSKDVLYPSLKEITEKYPEWLQSHRESLPPEQFEKYQEQHSVMCKICEQFEAETPTDSETTQKARFEMVLDLMQQLQDLGHPPKELAGEMPPGLNFDLDALNLSGPPGASGEQCLIM
partner: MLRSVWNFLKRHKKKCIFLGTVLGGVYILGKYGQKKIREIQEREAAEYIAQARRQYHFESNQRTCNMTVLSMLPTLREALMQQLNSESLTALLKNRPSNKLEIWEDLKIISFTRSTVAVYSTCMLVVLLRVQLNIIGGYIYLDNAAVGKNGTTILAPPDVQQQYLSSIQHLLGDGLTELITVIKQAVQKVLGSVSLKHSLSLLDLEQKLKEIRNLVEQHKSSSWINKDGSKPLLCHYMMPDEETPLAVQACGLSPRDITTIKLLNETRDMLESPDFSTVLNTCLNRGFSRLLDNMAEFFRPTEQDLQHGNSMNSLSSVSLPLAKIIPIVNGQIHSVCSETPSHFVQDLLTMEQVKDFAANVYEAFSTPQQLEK

Variants of: B1
Details: with gemi7_human GEMIN7, Q9H840
Chain of gemi7_human GEMIN7, Q9H840 (Q9H840 whole entry): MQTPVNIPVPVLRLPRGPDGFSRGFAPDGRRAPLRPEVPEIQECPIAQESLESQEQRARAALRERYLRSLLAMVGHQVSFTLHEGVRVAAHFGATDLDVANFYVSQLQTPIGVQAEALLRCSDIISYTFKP
For C91G, the “effect of a mutation on the interaction” value was “with no effect”.
G8S was tested, and the “effect of a mutation on the interaction” value was “with no effect”.
In the case of V57L, the “effect of a mutation on the interaction” value is reported as “with no effect”.

Variants of: B2
Details: with ews_human EWSR1, Q01844
Chain of ews_human EWSR1, Q01844 (Q01844 whole entry): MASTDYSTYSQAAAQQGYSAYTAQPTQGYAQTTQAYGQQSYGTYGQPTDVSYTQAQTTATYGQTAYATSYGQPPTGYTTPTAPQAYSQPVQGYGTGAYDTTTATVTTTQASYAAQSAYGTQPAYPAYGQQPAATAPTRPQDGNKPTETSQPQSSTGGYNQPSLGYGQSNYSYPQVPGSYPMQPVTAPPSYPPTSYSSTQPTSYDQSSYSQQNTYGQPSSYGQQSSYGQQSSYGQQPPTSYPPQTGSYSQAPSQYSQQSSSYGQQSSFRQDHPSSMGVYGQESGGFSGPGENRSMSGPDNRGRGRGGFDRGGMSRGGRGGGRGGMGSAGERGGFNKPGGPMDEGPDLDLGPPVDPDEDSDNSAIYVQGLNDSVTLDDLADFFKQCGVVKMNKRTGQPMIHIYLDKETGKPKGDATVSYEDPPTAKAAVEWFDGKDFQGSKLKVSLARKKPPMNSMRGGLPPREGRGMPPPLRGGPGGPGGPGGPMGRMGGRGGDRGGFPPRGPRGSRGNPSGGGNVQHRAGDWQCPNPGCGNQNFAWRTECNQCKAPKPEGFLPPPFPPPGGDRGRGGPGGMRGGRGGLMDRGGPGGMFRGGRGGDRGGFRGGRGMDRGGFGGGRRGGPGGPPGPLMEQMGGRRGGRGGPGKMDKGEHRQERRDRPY
P333L was tested, and the “effect of a mutation on the interaction” value was “with no effect”.

Variants of: B2
Details: with ptk6_human PTK6, Q13882
With P333L the “effect of a mutation on the interaction” value was “with no effect”.

Variants of: B2
Details: with hbaz_human HBZ
P333L was tested, and the “effect of a mutation on the interaction” value was “with no effect”.

Variants of: B3
Details: with meak7_human MEAK7, Q6P9B6
Chain of meak7_human MEAK7, Q6P9B6 (Q6P9B6 whole entry): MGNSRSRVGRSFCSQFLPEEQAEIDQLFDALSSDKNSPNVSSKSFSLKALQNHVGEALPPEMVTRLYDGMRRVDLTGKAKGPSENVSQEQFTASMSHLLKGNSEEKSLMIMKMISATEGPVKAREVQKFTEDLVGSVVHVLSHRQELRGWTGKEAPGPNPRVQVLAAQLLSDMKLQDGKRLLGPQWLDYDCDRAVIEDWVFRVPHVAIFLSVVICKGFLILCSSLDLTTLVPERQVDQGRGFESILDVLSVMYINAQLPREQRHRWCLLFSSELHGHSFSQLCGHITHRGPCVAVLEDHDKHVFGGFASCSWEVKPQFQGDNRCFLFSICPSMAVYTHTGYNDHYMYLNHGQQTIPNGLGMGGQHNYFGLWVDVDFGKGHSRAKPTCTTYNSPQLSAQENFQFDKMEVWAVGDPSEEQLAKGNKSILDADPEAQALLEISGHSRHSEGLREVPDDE
For G409E, the “effect of a mutation on the interaction” value was “with no effect”.

Variants of: B3
Details: with fnd3b_human FNDC3B
With G409E the “effect of a mutation on the interaction” value was “with no effect”.

Variants of: B4
Details: with nud12_human NUDT12, Q9BQG2
Chain of nud12_human NUDT12, Q9BQG2 (Q9BQG2 whole entry): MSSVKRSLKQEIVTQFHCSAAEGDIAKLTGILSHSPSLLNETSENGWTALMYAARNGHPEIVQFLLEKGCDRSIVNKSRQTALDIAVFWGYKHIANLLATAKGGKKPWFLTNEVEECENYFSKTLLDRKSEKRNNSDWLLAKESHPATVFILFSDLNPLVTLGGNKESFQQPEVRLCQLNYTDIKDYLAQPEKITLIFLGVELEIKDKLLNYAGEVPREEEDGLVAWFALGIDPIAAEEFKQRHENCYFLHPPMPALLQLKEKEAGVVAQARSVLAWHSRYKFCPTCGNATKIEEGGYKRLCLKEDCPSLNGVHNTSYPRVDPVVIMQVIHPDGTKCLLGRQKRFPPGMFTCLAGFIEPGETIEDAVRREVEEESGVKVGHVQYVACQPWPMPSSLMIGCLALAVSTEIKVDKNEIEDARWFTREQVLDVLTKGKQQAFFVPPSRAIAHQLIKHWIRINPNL
With I443V the “effect of a mutation on the interaction” value was “with no effect”.

Variants of: B4
Details: with ntaq1_human NTAQ1, Q96HA8
With E381K the “effect of a mutation on the interaction” value was “with no effect”.

Variants of: B5
Details: with FAM124A
For N267S, the “effect of a mutation on the interaction” value was “with no effect”.

Variants of: B6
Details: with cep95_human CEP95, Q96GE4
In the case of A89V, the “effect of a mutation on the interaction” value is reported as “with no effect”.

Variants of: B7
Details: with pex3_human PEX3, P56589
In the case of E6K, the “effect of a mutation on the interaction” value is reported as “with no effect”.
